This note sets out measurements from patent US20030049702A1.

The target in experiment [1] is GST-DR4 (residues 269-468) (UniProt O00220). The experiment is described as follows: GST pull-down on glutathione-Sepharose, immunoblot against input lane. Background: Immunoblotting shows a protein as a band on a membrane.
The target is the same in experiment [2]. The experiment is described as follows: Scatchard analysis: DAP3-His6 at 0.1-1 µM with 1.0 µg GST-DR4 on glutathione-Sepharose, free and bound DAP3 by immunoblot densitometry.

GST-DR4 (residues 269-468), sequence (O00220 269-468, form in doubt): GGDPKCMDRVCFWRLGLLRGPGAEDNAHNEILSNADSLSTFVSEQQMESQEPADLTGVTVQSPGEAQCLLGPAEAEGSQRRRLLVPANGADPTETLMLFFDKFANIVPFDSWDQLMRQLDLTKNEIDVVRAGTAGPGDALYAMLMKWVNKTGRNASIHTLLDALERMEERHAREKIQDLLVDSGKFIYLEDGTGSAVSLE

On to DAP3-His6, for which the percent of input bound in experiment [1] was in the range of 10 to 20%. The Kd (commonly a measure of binding affinity in units of concentration) in experiment [2] is 16 nM.
